T1: mouse FcγRIII extracellular domain, C-terminally His-tagged (mouse, UniProt P08508 31-215)
T1 construct: the whole entry is named; also called mFcγRIII; mFcgRIII
T1 chain: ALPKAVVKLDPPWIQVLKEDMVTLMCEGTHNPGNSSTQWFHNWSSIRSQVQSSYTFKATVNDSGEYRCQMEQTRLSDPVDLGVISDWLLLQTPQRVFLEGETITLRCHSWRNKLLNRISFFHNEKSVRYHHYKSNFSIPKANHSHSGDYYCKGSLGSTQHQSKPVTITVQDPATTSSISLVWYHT

T2: mouse FcγRII extracellular domain, C-terminally His-tagged (mouse, UniProt P08101 30-210)
T2 construct: the whole entry is named; also called mFcγRII; mFcgRII
T2 sequence: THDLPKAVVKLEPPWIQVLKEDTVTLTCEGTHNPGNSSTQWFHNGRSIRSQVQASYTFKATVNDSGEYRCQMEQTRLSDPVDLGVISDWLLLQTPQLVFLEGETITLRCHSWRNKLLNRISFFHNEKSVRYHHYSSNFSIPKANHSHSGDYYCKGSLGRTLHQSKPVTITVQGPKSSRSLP


Columns and labels:
[1] = biological target: T1, mouse FcγRIII extracellular domain, …; experiment: SPR Biacore T200, KD ratio
Protocol: (§1) Each altered antibody was analyzed for its interaction with each Fcγ receptor prepared above using Biacore T100 (GE Healthcare Japan Corp.), Biacore T200 (GE Healthcare Japan Corp.), Biacore A100, or Biacore 4000. The running buffer used was HBS-EP+ (GE Healthcare Japan Corp.). The assay temperature was set to 25° C. The sensor chips used were chips prepared by immobilizing Protein L (ACTIGEN or BioVision) onto Series S Sensor Chip CM5 (GE Healthcare Japan Corp.) or Series S Sensor Chip CM4 (GE Healthcare Japan Corp.) by the amine coupling method.
(§2) In order to calculate the KD value of each altered antibody for FcγR, kinetic analysis was conducted according to the following method: first, the antibody of interest was captured onto any of these chips and allowed to interact with mFcγR diluted with a running buffer. For the obtained sensorgram, the assay results were globally fit into the 1:1 Langmuir binding model using Biacore Evaluation Software to calculate an association rate constant ka (L/mol/s) and a dissociation rate constant kd (1/s). From these values, the dissociation constant KD (mol/L) was calculated.

[2] = biological target: T2, mouse FcγRII extracellular domain, …; experiment: SPR Biacore T200, KD ratio
Protocol: as §1, §2

| relative mFcγRIII-binding activity (mIgG1 = 1) [1] [fold] | relative mFcγRII-binding activity (mIgG1 = 1) [2] [fold] | Binder |
| --- | --- | --- |
| 0.51 | 3.89 | H237-MB649/MRAL-k0 (antibody, mouse IgG1, kappa, copies: 2 + 2) heavy: QVQLQESGPGLVKPSETLSLTCAVSGHSISHDHAWSWVRQPPGEGLEWIGFISYSGITNYNPSLQGRVTISRDNSKNTLYLQMNSLRAEDTAVYYCARSLARTTAMDYWGEGTLVTVSSAKTTPPSVYPLAPGSAAQTNSMVTLGCLVKGYFPEPVTVTWNSGSLSSGVHTFPAVLQSDLYTLSSSVTVPSSTWPSETVTCNVAHPASSTKVDKKIVPRDCGCKPCICQPNEVEYVFIFPPKPKDVLTITLTPKVTCVVVDISKDDPEVQFSWFVDDVEVHTAQTQPREEQFNSTFRSVSELPIMHQDWLNGKEFKCRVNSAAFPAPIEKTISKTKGRPKAPQVYTIPPPKEQMAKDKVSLTCMITDFFPEDITVEWQWNGQPAENYKNTQPIMDTDGSYFVYSKLNVQKSNWEAGNTFTCSVLHEGLHNHHTEKSLSHSPGK light: not shown |
| 0.06 | 0.28 | H237-MB652/MRAL-k0 (antibody, mouse IgG1, kappa, copies: 2 + 2) heavy: QVQLQESGPGLVKPSETLSLTCAVSGHSISHDHAWSWVRQPPGEGLEWIGFISYSGITNYNPSLQGRVTISRDNSKNTLYLQMNSLRAEDTAVYYCARSLARTTAMDYWGEGTLVTVSSAKTTPPSVYPLAPGSAAQTNSMVTLGCLVKGYFPEPVTVTWNSGSLSSGVHTFPAVLQSDLYTLSSSVTVPSSTWPSETVTCNVAHPASSTKVDKKIVPRDCGCKPCICENYEVEFVFIFPPKPKDVLTITLTPKVTCVVVDISKDDPEVQFSWFVDDVEVHTAQTQPREEQFNSTFRSVSELPIMHQDWLNGKEFKCRVNSAAFPAPIEKTISKTKGRPKAPQVYTIPPPKEQMAKDKVSLTCMITDFFPEDITVEWQWNGQPAENYKNTQPIMDTDGSYFVYSKLNVQKSNWEAGNTFTCSVLHEGLHNHHTEKSLSHSPGK light: not shown |
| 0.04 | 0.3 | H237-MB651/MRAL-k0 (antibody, mouse IgG1, kappa, copies: 2 + 2) heavy: QVQLQESGPGLVKPSETLSLTCAVSGHSISHDHAWSWVRQPPGEGLEWIGFISYSGITNYNPSLQGRVTISRDNSKNTLYLQMNSLRAEDTAVYYCARSLARTTAMDYWGEGTLVTVSSAKTTPPSVYPLAPGSAAQTNSMVTLGCLVKGYFPEPVTVTWNSGSLSSGVHTFPAVLQSDLYTLSSSVTVPSSTWPSETVTCNVAHPASSTKVDKKIVPRDCGCKPCICEDYEVEFVFIFPPKPKDVLTITLTPKVTCVVVDISKDDPEVQFSWFVDDVEVHTAQTQPREEQFNSTFRSVSELPIMHQDWLNGKEFKCRVNSAAFPAPIEKTISKTKGRPKAPQVYTIPPPKEQMAKDKVSLTCMITDFFPEDITVEWQWNGQPAENYKNTQPIMDTDGSYFVYSKLNVQKSNWEAGNTFTCSVLHEGLHNHHTEKSLSHSPGK light: not shown |
| 0.05 | 0.24 | H237-MB650/MRAL-k0 (antibody, mouse IgG1, kappa, copies: 2 + 2) heavy: QVQLQESGPGLVKPSETLSLTCAVSGHSISHDHAWSWVRQPPGEGLEWIGFISYSGITNYNPSLQGRVTISRDNSKNTLYLQMNSLRAEDTAVYYCARSLARTTAMDYWGEGTLVTVSSAKTTPPSVYPLAPGSAAQTNSMVTLGCLVKGYFPEPVTVTWNSGSLSSGVHTFPAVLQSDLYTLSSSVTVPSSTWPSETVTCNVAHPASSTKVDKKIVPRDCGCKPCICEAYEVEFVFIFPPKPKDVLTITLTPKVTCVVVDISKDDPEVQFSWFVDDVEVHTAQTQPREEQFNSTFRSVSELPIMHQDWLNGKEFKCRVNSAAFPAPIEKTISKTKGRPKAPQVYTIPPPKEQMAKDKVSLTCMITDFFPEDITVEWQWNGQPAENYKNTQPIMDTDGSYFVYSKLNVQKSNWEAGNTFTCSVLHEGLHNHHTEKSLSHSPGK light: not shown |

Further lines, the binder ahead of its results:

| Binder | relative mFcγRIII-binding activity (mIgG1 = 1) [1] [fold] | relative mFcγRII-binding activity (mIgG1 = 1) [2] [fold] |
| --- | --- | --- |
| H237-MB643/MRAL-k0 (antibody, mouse IgG1, kappa, copies: 2 + 2) heavy: QVQLQESGPGLVKPSETLSLTCAVSGHSISHDHAWSWVRQPPGEGLEWIGFISYSGITNYNPSLQGRVTISRDNSKNTLYLQMNSLRAEDTAVYYCARSLARTTAMDYWGEGTLVTVSSAKTTPPSVYPLAPGSAAQTNSMVTLGCLVKGYFPEPVTVTWNSGSLSSGVHTFPAVLQSDLYTLSSSVTVPSSTWPSETVTCNVAHPASSTKVDKKIVPRDCGCKPCICENYEVEYVFIFPPKPKDVLTITLTPKVTCVVVDISKDDPEVQFSWFVDDVEVHTAQTQPREEQFNSTFRSVSELPIMHQDWLNGKEFKCRVNSAAFPAPIEKTISKTKGRPKAPQVYTIPPPKEQMAKDKVSLTCMITDFFPEDITVEWQWNGQPAENYKNTQPIMDTDGSYFVYSKLNVQKSNWEAGNTFTCSVLHEGLHNHHTEKSLSHSPGK light: not shown | 0.14 | 1.66 |
| H237-MB646/MRAL-k0 (antibody, mouse IgG1, kappa, copies: 2 + 2) heavy: QVQLQESGPGLVKPSETLSLTCAVSGHSISHDHAWSWVRQPPGEGLEWIGFISYSGITNYNPSLQGRVTISRDNSKNTLYLQMNSLRAEDTAVYYCARSLARTTAMDYWGEGTLVTVSSAKTTPPSVYPLAPGSAAQTNSMVTLGCLVKGYFPEPVTVTWNSGSLSSGVHTFPAVLQSDLYTLSSSVTVPSSTWPSETVTCNVAHPASSTKVDKKIVPRDCGCKPCICEPAEVEYVFIFPPKPKDVLTITLTPKVTCVVVDISKDDPEVQFSWFVDDVEVHTAQTQPREEQFNSTFRSVSELPIMHQDWLNGKEFKCRVNSAAFPAPIEKTISKTKGRPKAPQVYTIPPPKEQMAKDKVSLTCMITDFFPEDITVEWQWNGQPAENYKNTQPIMDTDGSYFVYSKLNVQKSNWEAGNTFTCSVLHEGLHNHHTEKSLSHSPGK light: not shown | 0.15 | 4.38 |
| H237-MB644/MRAL-k0 (antibody, mouse IgG1, kappa, copies: 2 + 2) heavy: QVQLQESGPGLVKPSETLSLTCAVSGHSISHDHAWSWVRQPPGEGLEWIGFISYSGITNYNPSLQGRVTISRDNSKNTLYLQMNSLRAEDTAVYYCARSLARTTAMDYWGEGTLVTVSSAKTTPPSVYPLAPGSAAQTNSMVTLGCLVKGYFPEPVTVTWNSGSLSSGVHTFPAVLQSDLYTLSSSVTVPSSTWPSETVTCNVAHPASSTKVDKKIVPRDCGCKPCICETYEVEYVFIFPPKPKDVLTITLTPKVTCVVVDISKDDPEVQFSWFVDDVEVHTAQTQPREEQFNSTFRSVSELPIMHQDWLNGKEFKCRVNSAAFPAPIEKTISKTKGRPKAPQVYTIPPPKEQMAKDKVSLTCMITDFFPEDITVEWQWNGQPAENYKNTQPIMDTDGSYFVYSKLNVQKSNWEAGNTFTCSVLHEGLHNHHTEKSLSHSPGK light: not shown | 0.3 | 4.55 |
| H237-MB645/MRAL-k0 (antibody, mouse IgG1, kappa, copies: 2 + 2) heavy: QVQLQESGPGLVKPSETLSLTCAVSGHSISHDHAWSWVRQPPGEGLEWIGFISYSGITNYNPSLQGRVTISRDNSKNTLYLQMNSLRAEDTAVYYCARSLARTTAMDYWGEGTLVTVSSAKTTPPSVYPLAPGSAAQTNSMVTLGCLVKGYFPEPVTVTWNSGSLSSGVHTFPAVLQSDLYTLSSSVTVPSSTWPSETVTCNVAHPASSTKVDKKIVPRDCGCKPCICEVYEVEYVFIFPPKPKDVLTITLTPKVTCVVVDISKDDPEVQFSWFVDDVEVHTAQTQPREEQFNSTFRSVSELPIMHQDWLNGKEFKCRVNSAAFPAPIEKTISKTKGRPKAPQVYTIPPPKEQMAKDKVSLTCMITDFFPEDITVEWQWNGQPAENYKNTQPIMDTDGSYFVYSKLNVQKSNWEAGNTFTCSVLHEGLHNHHTEKSLSHSPGK light: not shown | 0.2 | 1.17 |
| H237-MB648/MRAL-k0 (antibody, mouse IgG1, kappa, copies: 2 + 2) heavy: QVQLQESGPGLVKPSETLSLTCAVSGHSISHDHAWSWVRQPPGEGLEWIGFISYSGITNYNPSLQGRVTISRDNSKNTLYLQMNSLRAEDTAVYYCARSLARTTAMDYWGEGTLVTVSSAKTTPPSVYPLAPGSAAQTNSMVTLGCLVKGYFPEPVTVTWNSGSLSSGVHTFPAVLQSDLYTLSSSVTVPSSTWPSETVTCNVAHPASSTKVDKKIVPRDCGCKPCICEPNEVEYVFIFPPKPKDVLTITLTPKVTCVVVDISKDDPEVQFSWFVDDVEVHTAQTQPREEQFNSTFRSVSELPIMHQDWLNGKEFKCRVNSAAFPAPIEKTISKTKGRPKAPQVYTIPPPKEQMAKDKVSLTCMITDFFPEDITVEWQWNGQPAENYKNTQPIMDTDGSYFVYSKLNVQKSNWEAGNTFTCSVLHEGLHNHHTEKSLSHSPGK light: not shown | 0.64 | 10.8 |
| H237-MB647/MRAL-k0 (antibody, mouse IgG1, kappa, copies: 2 + 2) heavy: QVQLQESGPGLVKPSETLSLTCAVSGHSISHDHAWSWVRQPPGEGLEWIGFISYSGITNYNPSLQGRVTISRDNSKNTLYLQMNSLRAEDTAVYYCARSLARTTAMDYWGEGTLVTVSSAKTTPPSVYPLAPGSAAQTNSMVTLGCLVKGYFPEPVTVTWNSGSLSSGVHTFPAVLQSDLYTLSSSVTVPSSTWPSETVTCNVAHPASSTKVDKKIVPRDCGCKPCICIPAEVEYVFIFPPKPKDVLTITLTPKVTCVVVDISKDDPEVQFSWFVDDVEVHTAQTQPREEQFNSTFRSVSELPIMHQDWLNGKEFKCRVNSAAFPAPIEKTISKTKGRPKAPQVYTIPPPKEQMAKDKVSLTCMITDFFPEDITVEWQWNGQPAENYKNTQPIMDTDGSYFVYSKLNVQKSNWEAGNTFTCSVLHEGLHNHHTEKSLSHSPGK light: not shown | 0.1 | 1.05 |
